The record followed here is article PMC11570697, “2D4, a humanized monoclonal antibody targeting CD132, is a promising treatment for systemic lupus erythematosus” (Signal Transduction and Targeted Therapy, 2024).

Assay [1] concerns the target human CD132 (common gamma chain cytokine receptor) (human) (UniProt P31785).
Assay [2] deals with human CD132 (common gamma chain cytokine receptor) (human, UniProt P31785). Description: cell-based or functional assay.
human CD132 (common gamma chain cytokine receptor), sequence (P31785 23-262): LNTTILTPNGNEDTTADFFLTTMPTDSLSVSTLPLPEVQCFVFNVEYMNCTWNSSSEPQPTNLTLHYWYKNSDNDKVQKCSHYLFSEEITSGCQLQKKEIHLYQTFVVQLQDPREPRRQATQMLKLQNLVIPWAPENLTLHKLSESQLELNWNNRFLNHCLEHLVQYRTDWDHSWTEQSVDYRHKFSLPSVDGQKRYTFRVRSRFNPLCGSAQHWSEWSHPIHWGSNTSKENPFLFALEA

human CD132 (common gamma chain cytokine receptor) (human), sequence (P31785 23-262): as above

For the molecule “REGN7257, pan CD132 blocking monoclonal antibody”, the maximum percent inhibition of IL-2-induced STAT5 phosphorylation in CD3+ T cells of human PBMCs (gradient dilutions, up to 200 nM antibody) in assay [1] is 100%.

B1: 2D4, humanized anti-CD132 monoclonal antibody (antibody, V domains shown)
VH: QVQLVQSGAEVKKPGSSVKVSCKTSGFNIEDIYLHWVRQAPGQGLEWMGRIDPANGKSNYDPKFQGRVTITADTSTSTAYMELSSLRSEDTAVYYCAALRFFGLDYWGQGTLVTVSS
VL: EIVLTQSPATLSLSPGERATLSCRATSSVSYMYWYQQKPGQAPELLIYRTSNLASGIPARFSGSGSGTDYTLTISSLEPEDFAVYYCQQWSSNPPTFGQGTKLEIK
Turning to B1, in assay [2], the “IC50 of blocking human IL-21: IFN-γ secretion by NK92 cells (ELISA), relative to REGN7257” value came out at 10 fold and the “IC50 of blocking human IL-21: STAT3 phosphorylation in CD3+ T cells of human PBMCs (flow cytometry), relative to REGN7257” value is < 2 fold.
